Bridges are numbered along the chain shown (N, C = ends). Where no end group is shown, it is not given here. rhodamine = 5(6)-carboxytetramethylrhodamine label attached at the N-terminus
How the values were obtained:
[1] = Viscoelastic measurements of functionalized SAP hydrogels (gel capacity); assay type: physicochemical; conditions: 15 mg/mL in 1×DPBS, 2.5 rad/s
Method: (§1) Rheological characterization. All peptide samples were prepared at 10 mM peptide, except for those used to assess the effect of SAP functionalization with respect to weight (15 mg/mL). Viscous and viscoelastic properties were assessed using a stress-controlled rheometer (TA Instruments AR-02) equipped with a Peltier plate to control temperature and a 20 mm diameter parallel plate geometry. Unless otherwise stated all measurements were taken at an angular frequency of 2.5 rad s^−1, strain of 0.5%, and temperature of 37° C. Measurements were performed with a gap height of 1000 μm and repeated three times (except for step-strain tests) to ensure reproducibility. To prevent water evaporation, mineral oil was wrapped around the edge of the geometry at the air-sample interface. For viscoelastic measurements the apparatus was used in oscillatory mode. […] The dynamic moduli of the hydrogels were measured as a function of frequency in the range 0_25-100 rad s^−1 at a strain of 0.5%. Continuous step-strain oscillations were used to monitor hydrogel healing through disruption (3 min, 100% strain) and recovery (15 min. 0.5% strain) cycles (n=3). Temperature sweeps were measured by increasing the apparatus temperatures from 21-40° C. at a ramp rate of 0.5° C./min. […] The viscosity of the samples was measured as a function of shear rate in the range 0.1-10 s^−1 (5% tolerance.

Thermolysin [2] = molecular target: T1, Thermolysin (Bacillus thermoproteolyticus, UniProt P00800); assay: Time course rheological analysis of bulk gelation after thermolysin addition; assay type: physicochemical; parameters: purchased Promega V400A; conditions: 10 mM in 1×DPBS, thermolysin 1:4500 added at t=40 min, 37° C.
T1 sequence (P00800 233-548): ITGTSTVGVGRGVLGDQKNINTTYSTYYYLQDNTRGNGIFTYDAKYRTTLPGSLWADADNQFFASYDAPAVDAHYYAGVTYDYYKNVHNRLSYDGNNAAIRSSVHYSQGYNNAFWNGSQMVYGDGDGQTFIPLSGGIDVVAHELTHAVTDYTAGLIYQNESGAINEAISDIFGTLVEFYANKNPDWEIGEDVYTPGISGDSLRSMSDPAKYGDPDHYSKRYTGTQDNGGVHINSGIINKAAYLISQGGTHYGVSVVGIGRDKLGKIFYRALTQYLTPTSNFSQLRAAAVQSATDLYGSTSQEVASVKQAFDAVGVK
Method: as §1

[3] = molecular target: T2, MMP-9 (recombinant human catalytic domain) (Homo sapiens, UniProt P14780); assay: In vitro enzyme cleavage of cyclic progelator by MMP-9; assay type: biochemical; conditions: 1:1000 enzyme/substrate, 5 hr; denatured enzyme elicited no response
T2 construct: MMP-9 (recombinant human catalytic domain); purchased Enzo Life Sciences BML-SEro360
From the text: (§2) Transmission electron microscopy (TEM).
(§3) In vitro enzyme cleavage of cyclic peptide progelator. […] Control samples utilized denatured enzymes under the same conditions.

[4] = molecular target: T3, Porcine pancreatic elastase (Sus scrofa, UniProt P00772); assay: In vitro enzyme cleavage of cyclic progelator by elastase; assay type: biochemical; conditions: 1:250 enzyme/substrate, 5 hr; denatured enzyme elicited no response
T3 construct: purchased EMD Millipore 3246821000U
From the text: as §2, §3

Thermolysin [5] = molecular target: T1, Thermolysin; conditions: 1:4500 enzyme/substrate
Method: General information. […] Thermolysin (V400A) was acquired from Promega, as a lyophilized powder.
In vitro enzyme cleavage of cyclic peptide progelator. Unless otherwise stated, enzyme cleavage experiments were performed on progelator at a final concentration of 500 μM in 1× enzyme cleavage buffers. […] Thermolysin cleavages were performed at 1:4500 enzyme/substrate molar ratio in 1× buffer (1×DPBS, pH 7.4) for 15 min. […] Control samples utilized denatured enzymes under the same conditions. […] Thermolysin was inactivated by incubation with 10% (v/v) EDTA (0.5 M, pH 8.0)

red blood cells (RBCs) = assay: Hemolysis of red blood cells (RBCs); assay type: cell-based, human; conditions: positive (normalization) control 1% Triton X-100; isolated RBCs, 1 hr incubation; n=4
Method: (§4) Hemocompatibility analysis.
Hemolysis assay. Acute toxicity of cyclic peptide progelator was measured with a RBC hemolysis assay specific to biomacromolecular drug analysis, as previously described.^73 Averages (n=4) and standard error of the mean (SEM) for absorbance measurements (at 540 nm) were plotted.

whole human blood [6] = assay: Activated clotting times (ACT) with whole human blood; conditions: positive control, collagen 0.095 mg/mL
Method: as §4
Activated clotting times (ACT) with whole human blood. A Hemochron 801 instrument calibrated with an electronic system verification (ESV) device was used to measure activated clotting time (ACT) of whole human blood. Activated clotting times (ACT) were determined using recalcified citrated whole human blood to minimize variability in starting time points for clotting in all assays.^71 To each Hemochron P214 tube with glass beads was added 4 μL CaCl2 (1.1 M) and 36 μL peptide stock or additive (12.2× final blood concentration). Samples were mixed thoroughly for 30 s to soak the glass beads and incubated 30 s at 37° C. Citrated whole human blood (400 μL) was then added (t=0 s), mixed by hand for 10 s, and added to the instrument. Time points at which the magnet was displaced by clot formation were recorded by the instrument. Collagen (0.095 mg/mL) was used as a positive control to […] clotting time. Vehicle (1×DPBS) served as a standard for blood without additive. Samples without calcium, serving as the negative control, exceeded instrument maximum time range (>1500 sec). Each experiment was performed n=6 times with averages and standard error of the mean (SEM) plotted.

whole human blood [7] = assay: Whole blood hemostasis kinetics (non-activated whole blood clotting assay); conditions: positive controls; recalcified whole human blood
Method: as §4
Whole blood hemostasis kinetics. Changes to time-dependent hemostasis were monitored using a non-activated whole blood clotting assay.^72 Briefly, 100 μL of citrated whole human was mixed with 10 μL of peptide or collagen stock (11.5× final blood concentration) and 5 μL of CaCl2 (230 mM). Collagen (0.095 mg/mL) and glass coverslips were used as positive controls to increase clotting rates from an additive and contact initiated perspective, respectively. […] Aliquots (100 μL) were transferred to a 12-well TCP, covered, and incubated at r.t. for 5 min, 15 min, 30 min, and 45 min. Each sample was prepared in triplicate. At the end of each time point, RBCs not caught in the thrombus were lysed by gently adding 3 mL distilled H2O and incubating for 5 min. Each well was sampled (200 μL), taking care not to disturb the clot, and transferred to a 96 well plate for analysis. Released hemoglobin from lysis was detected by measuring the absorbance at 405 nm (height 4.0 mm, 100 flashes) using a plate reader. Extent of clotting is inversely proportional to measured absorbance. Averages (n=3) and standard error of the mean (SEM) are plotted.

T3 sequence (P00772 27-266): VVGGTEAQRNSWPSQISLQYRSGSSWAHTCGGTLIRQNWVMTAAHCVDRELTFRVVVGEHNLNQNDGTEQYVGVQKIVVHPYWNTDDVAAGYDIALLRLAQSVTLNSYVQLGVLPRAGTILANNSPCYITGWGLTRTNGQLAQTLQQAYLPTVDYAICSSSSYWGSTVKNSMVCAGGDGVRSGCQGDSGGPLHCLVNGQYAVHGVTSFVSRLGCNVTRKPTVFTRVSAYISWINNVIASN
T2 sequence (P14780 107-444 limits assumed): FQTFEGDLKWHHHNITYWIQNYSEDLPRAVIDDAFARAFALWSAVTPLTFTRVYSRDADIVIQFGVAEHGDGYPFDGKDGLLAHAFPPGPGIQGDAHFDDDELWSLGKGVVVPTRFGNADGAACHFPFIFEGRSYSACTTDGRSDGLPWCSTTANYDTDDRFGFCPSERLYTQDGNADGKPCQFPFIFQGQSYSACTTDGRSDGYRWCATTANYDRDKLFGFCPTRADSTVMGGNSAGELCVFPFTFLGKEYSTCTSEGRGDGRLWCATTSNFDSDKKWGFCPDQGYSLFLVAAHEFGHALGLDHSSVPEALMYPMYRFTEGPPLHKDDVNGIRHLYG

C(KFDF)3PLGLAGC (SEQ ID NO: 7) (CKFDFKFDFKFDFPLGLAGC) [KFDF (SEQ ID NO:1)Linear, modified linear SAP primed for cyclization, no fluorescent label]
gelling capacity (tanδ<1) and strain tolerance vs unmodified SAP [1]: no significant disruptive effects to gelling capacity

C(KLDL)3PLGLAGC (SEQ ID NO: 6) (CKLDLKLDLKLDLPLGLAGC) [KLDL (SEQ ID NO:5)Linear, modified linear SAP primed for cyclization, no fluorescent label]
gelling capacity (tanδ<1) and strain tolerance vs unmodified SAP [1]: no significant disruptive effects to gelling capacity

CKLDLKLDLKLDLPLGLAGC (SEQ ID NO:6) (disulfide 1-20) [KLDL (SEQ ID NO:5)Cyclic, unlabeled cyclized enzyme-responsive progelator]
time at which steady state of shear moduli (G′, G″) was reached (Thermolysin [2]): 200 min

Rho-KFDF (SEQ ID NO:1)Cyclic: rhodamine labeled cyclized KFDF progelator (SEQ ID NO:7) (rhodamine-CKFDFKFDFKFDFPLGLAGC; disulfide 1-20)
response to active MMP-9 cleavage (visual, TEM) [3]: induced visible aggregation in the reaction vial and entangled fibrous meshes by TEM
response to active elastase cleavage (visual, TEM) [4]: induced visible aggregation in the reaction vial and entangled fibrous meshes by TEM
response to thermolysin incubation (TEM) (Thermolysin [5]): induced fiber formation by TEM

Rho-KLDL (SEQ ID NO:5)Cyclic: rhodamine labeled cyclized KLDL progelator (SEQ ID NO:6) (rhodamine-CKLDLKLDLKLDLPLGLAGC; disulfide 1-20)
response to active MMP-9 cleavage (visual, TEM) [3]: induced visible aggregation in the reaction vial and entangled fibrous meshes by TEM
response to active elastase cleavage (visual, TEM) [4]: induced visible aggregation in the reaction vial and entangled fibrous meshes by TEM
response to thermolysin incubation (TEM) (Thermolysin [5]): induced fiber formation by TEM

Triton X-100 [1% Triton X-100]
% Hemolysis (red blood cells (RBCs)): 100.00%

collagen [reference compound]
effect on clot time vs vehicle (ACT) (whole human blood [6]): significant clot time reduction
Activated clotting time (ACT), Average Time (whole human blood [6]; whole human blood, n=6): 150 s
clot rate (hemostasis kinetics) (whole human blood [7]): increased the clot rate

— patent US11530240B2, “Catheter injectable cyclic peptide pro-gelators for myocardial tissue engineering” (The Regents of the University of California, priority 2017, dated 2022)
